# Values of other authors as cited in publication PMC9405667.
# pKd: −log10 of the molar value.
# Legend:
# [1] = molecular target: chemerin receptor 1 (chem1) (Homo sapiens) (UniProt Q99788)
# [2] = molecular target: chemerin receptor 2 (chem2) (Homo sapiens) (UniProt P46091)
# chemerin receptor 2 (chem2) (Homo sapiens), sequence (P46091 whole entry): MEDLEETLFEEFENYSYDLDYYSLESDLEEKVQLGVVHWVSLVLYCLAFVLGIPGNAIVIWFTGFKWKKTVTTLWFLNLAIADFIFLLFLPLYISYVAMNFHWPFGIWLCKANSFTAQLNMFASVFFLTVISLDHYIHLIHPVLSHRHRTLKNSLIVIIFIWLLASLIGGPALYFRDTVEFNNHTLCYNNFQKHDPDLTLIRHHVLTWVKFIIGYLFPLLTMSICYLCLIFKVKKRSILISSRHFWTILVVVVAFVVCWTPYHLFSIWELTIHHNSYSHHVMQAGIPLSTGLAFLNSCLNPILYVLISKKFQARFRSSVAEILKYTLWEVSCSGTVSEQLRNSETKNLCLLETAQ
# chemerin (chem157S), sequence (Q99969 21-157): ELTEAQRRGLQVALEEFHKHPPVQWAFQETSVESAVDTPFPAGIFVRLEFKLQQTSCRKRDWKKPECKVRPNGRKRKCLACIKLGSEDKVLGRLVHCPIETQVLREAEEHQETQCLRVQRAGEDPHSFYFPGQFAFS
# chemerin receptor 1 (chem1) (Homo sapiens), sequence (Q99788 whole entry): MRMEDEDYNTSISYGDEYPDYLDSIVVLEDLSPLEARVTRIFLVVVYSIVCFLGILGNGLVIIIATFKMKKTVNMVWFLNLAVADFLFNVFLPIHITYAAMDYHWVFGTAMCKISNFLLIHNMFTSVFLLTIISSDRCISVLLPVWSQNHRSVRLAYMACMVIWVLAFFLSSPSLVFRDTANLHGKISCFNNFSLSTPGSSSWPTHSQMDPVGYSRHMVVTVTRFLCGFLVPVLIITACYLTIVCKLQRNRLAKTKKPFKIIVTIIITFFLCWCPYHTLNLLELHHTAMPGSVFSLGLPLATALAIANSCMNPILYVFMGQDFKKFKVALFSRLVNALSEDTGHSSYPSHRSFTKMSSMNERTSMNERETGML
substance,measurement,setting,value
chemerin (chem157S) (from UniProt Q99969),pKd,[1],9.06
same,pKd,[2],9.68
